# Publication PMC11101452, “Structures of the mumps virus polymerase complex via cryo-electron microscopy” (Nature Communications, 2024)
# B1: mumps virus (strain Jeryl-Lynn) phosphoprotein (P) (natural protein)
# chain: MDQFIKQDETGDLIETGMNVANHFLSTPIQGTNSLSKASILPGVAPVLIGNPEQKNIQHPTASHQGSKTKGRGSGVRSIIVSPSEAGNGGTQIPEPLFAQTGQGGIVTTVYQDPTIQPTGSYRSVELAKIGKERMINRFVEKPRTSTPVTEFKRGGPGAAAQGQTIQEEGIDGNGASAGSKERSGSLSGATLYAHLSLPQQDSTPANVGIAPQSAISANEIMDLLRGMDARLQHLEQKVDKVLAQGSMVTQIKNELSTVKTTLATIEGMMATVKIMDPGNPTGVPVDELRRSFSDHVTIVSGPGDVSFSSSEKPTLYLDELARPVSKPRPAKQTKSQPVKDLAGQKVMITKMITDCVANPQMKQAFEQRLAKASTEDALNDIKRDIIRSAI
# notes: Phosphoprotein (P) of mumps virus strain Jeryl-Lynn, GenBank AAF70389.1; domains NTD, OD, Linker2, CTD (with XD); Four P molecules (P1-P4) stand in the L–P complex; only POD, Linker2 and part of PCTD are resolved; also called MuV P; P1; not shown: Flag, C-terminal, kept
# Target: the molecule itself
# Experiment: cryo-EM structure; L–P complex co-expressed in Sf9 and co-purified by the Strep tag of L; 2.0 μM; annealed and unannealed samples combined; 150 mM NaCl, 20 mM Tris-HCl, 6 mM MgCl2, 1 mM TCEP, pH 8.0; two conformations (L_(integral)–P, L_(body)–P)
protein,measurement,value
B1,stoichiometry N,4
